In article PMC3639176, “HnRNP A1/A2 and SF2/ASF Regulate Alternative Splicing of Interferon Regulatory Factor-3 and Affect Immunomodulatory Functions in Human Non-Small Cell Lung Cancer Cells”:

Tests used:
GST-hnRNP A1 = GST-hnRNP A1 (UniProt P09651 1-372); assay: EMSA; 2 ug tRNA competitor; LightShift Chemiluminescent EMSA kit; 20 fmol biotinylated RNA, 50 ng protein (20 ng in Fig. 3 legend), 2 ug tRNA, 20 ul, 20 min, room temperature; 6% native PAGE; buffer, salt and pH not stated; details: protein: recombinant; label: 3' biotin
Sequence of GST-hnRNP A1 (P09651 whole entry): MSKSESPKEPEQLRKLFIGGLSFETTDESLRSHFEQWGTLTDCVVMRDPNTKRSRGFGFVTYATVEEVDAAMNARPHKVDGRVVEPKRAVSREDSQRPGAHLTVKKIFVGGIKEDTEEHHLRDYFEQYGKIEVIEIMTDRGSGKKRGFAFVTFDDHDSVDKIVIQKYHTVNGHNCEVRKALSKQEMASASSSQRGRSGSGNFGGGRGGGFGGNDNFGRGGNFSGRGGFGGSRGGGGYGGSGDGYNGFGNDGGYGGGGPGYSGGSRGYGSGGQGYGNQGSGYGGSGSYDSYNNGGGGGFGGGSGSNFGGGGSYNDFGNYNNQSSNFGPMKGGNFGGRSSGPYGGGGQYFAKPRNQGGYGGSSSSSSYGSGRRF

GST-SF2/ASF = GST-SF2/ASF (UniProt Q07955 1-248); assay: as above; details: protein: recombinant; label: 3' biotin
Sequence of GST-SF2/ASF (Q07955 whole entry): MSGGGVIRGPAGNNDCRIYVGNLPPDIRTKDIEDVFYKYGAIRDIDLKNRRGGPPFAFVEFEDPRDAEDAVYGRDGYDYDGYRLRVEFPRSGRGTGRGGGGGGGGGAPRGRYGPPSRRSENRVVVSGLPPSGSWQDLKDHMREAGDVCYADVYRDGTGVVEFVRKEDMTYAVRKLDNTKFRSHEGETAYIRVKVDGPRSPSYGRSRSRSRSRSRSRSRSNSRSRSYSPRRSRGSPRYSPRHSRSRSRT

Row | Binder | binding result (GST-hnRNP A1) | binding result (GST-SF2/ASF)
1 | UGAAAUAACUAGGGAAAGAGGAUG (ssRNA) [wt-A1] | binds | –
2 | ACGCUGGGGAAGGAUGUGCCAUGGAUAUGGGAAGGAACCCUAG (ssRNA) [wt-SF2] | – | binds
